# Results taken from PMC12169213 (Science (New York, N.Y.), 2025).
# B1: green fluorescent protein (GFP)-DNA2 (enzyme, UniProt P51530 1-1060, looked up)
# chain: MEQLNELELLMEKSFWEEAELPAELFQKKVVASFPRTVLSTGMDNRYLVLAVNTVQNKEGNCEKRLVITASQSLENKELCILRNDWCSVPVEPGDIIHLEGDCTSDTWIIDKDFGYLILYPDMLISGTSIASSIRCMRRAVLSETFRSSDPATRQMLIGTVLHEVFQKAINNSFAPEKLQELAFQTIQEIRHLKEMYRLNLSQDEIKQEVEDYLPSFCKWAGDFMHKNTSTDFPQMQLSLPSDNSKDNSTCNIEVVKPMDIEESIWSPRFGLKGKIDVTVGVKIHRGYKTKYKIMPLELKTGKESNSIEHRSQVVLYTLLSQERRADPEAGLLLYLKTGQMYPVPANHLDKRELLKLRNQMAFSLFHRISKSATRQKTQLASLPQIIEEEKTCKYCSQIGNCALYSRAVEQQMDCSSVPIVMLPKIEEETQHLKQTHLEYFSLWCLMLTLESQSKDNKKNHQNIWLMPASEMEKSGSCIGNLIRMEHVKIVCDGQYLHNFQCKHGAIPVTNLMAGDRVIVSGEERSLFALSRGYVKEINMTTVTCLLDRNLSVLPESTLFRLDQEEKNCDIDTPLGNLSKLMENTFVSKKLRDLIIDFREPQFISYLSSVLPHDAKDTVACILKGLNKPQRQAMKKVLLSKDYTLIVGMPGTGKTTTICTLVRILYACGFSVLLTSYTHSAVDNILLKLAKFKIGFLRLGQIQKVHPAIQQFTEQEICRSKSIKSLALLEELYNSQLIVATTCMGINHPIFSRKIFDFCIVDEASQISQPICLGPLFFSRRFVLVGDHQQLPPLVLNREARALGMSESLFKRLEQNKSAVVQLTVQYRMNSKIMSLSNKLTYEGKLECGSDKVANAVINLRHFKDVKLELEFYADYSDNPWLMGVFEPNNPVCFLNTDKVPAPEQVEKGGVSNVTEAKLIVFLTSIFVKAGCSPSDIGIIAPYRQQLKIINDLLARSIGMVEVNTVDKYQGRDKSIVLVSFVRSNKDGTVGELLKDWRRLNVAITRAKHKLILLGCVPSLNCYPPLEKLLNHLNSEKLIIDLPSREHESLCHILGDFQRE
# B2: CTC1-STN1-TEN1 (CST) complex (complex)
# chain 1: AAGRAQVPSSEQAWLEDAQVFIQKTLCPAVKEPNVQLTPLVIDCVKTVWLSQGRNQGSTLPLSYSFVSVQDLKTHQRLPCCSHLSWSSSAYQAWAQEAGPNGNPLPREQLLLLGTLTDLSADLEQECRNGSLYVRDNTGVLSCELIDLDLSWLGHLFLFPRWSYLPPARWNSSGEGHLELWDAPVPVFPLTISPGPVTPIPVLYPESASCLLRLRNKLRGVQRNLAGSLVRLSALVKSKQKAYFILSLGRSHPAVTHVSIIVQVPAQLVWHRALRPGTAYVLTELRVSKIRGQRQHVWMTSQSSRLLLLKPECVQELELELEGPLLEADPKPLPMPSNSEDKKDPESLVRYSRLLSYSGAVTGVLNEPAGLYELDGQLGLCLAYQQFRGLRRVMRPGVCLQLQDVHLLQSVGGGTRRPVLAPCLRGAVLLQSFSRQKPGAHSSRQAYGASLYEQLVWERQLGLPLYLWATKALEELACKLCPHVLRHHQFLQHSSPGSPSLGLQLLAPTLDLLAPPGSPVRNAHNEILEEPHHCPLQKYTRLQTPSSFPTLATLKEEGQRKAWASFDPKALLPLPEASYLPSCQLNRRLAWSWLCLLPSAFCPAQVLLGVLVASSHKGCLQLRDQSGSLPCLLLAKHSQPLSDPRLIGCLVRAERFQLIVERDVRSSFPSWKELSMPGFIQKQQARVYVQFFLADALILPVPRPCLHSATPSTPQTDPTGPEGPHLGQSRLFLLCHKEALMKRNFCVPPGASPEVPKPALSFYVLGSWLGGTQRKEGTGWGLPEPQGNDDNDQKVHLIFFGSSVRWFEFLHPGQVYRLIAPGPATPMLFEKDGSSCISRRPLELAGCASCLTVQDNWTLELESSQDIQDVLDANKSLPESSLTDLLSDNFTDSLVSFSAEILSRTLCEPLVASLWMKLGNTGAMRRCVKLTVALETAECEFPPHLDVYIEDPHLPPSLGLLPGARVHFSQLEKRVSRSHNVYCCFRSSTYVQVLSFPPETTISIPLPHIYLAELLQGGQSPFQATASCHIVSVFSLQLFWVCAYCTSICRQGKCTRLGSTCPTQTAISQAIIRLLVEDGTAEAVVTCRNHHVAAALGLCPREWASLLDFVQVPGRVVLQFAGPGAQLESSARVDEPMTMFLWTLCTSPSVLRPIVLSFELERKPSKIVPLEPPRLQRFQCGELPFLTHVNPRLRLSCLSIRESEYSSSLGILASSC
# chain 2: QPGSSRCEEETPSLLWGLDPVFLAFAKLYIRDILDMKESRQVPGVFLYNGHPIKQVDVLGTVIGVRERDAFYSYGVDDSTGVINCICWKKLNTESVSAAPSAARELSLTSQLKKLQETIEQKTKIEIGDTIRVRGSIRTYREEREIHATTYYKVDDPVWNIQIARMLELPTIYRKVYDQPFHSSALEKEEALSNPGALDLPSLTSLLSEKAKEFLMENRVQSFYQQELEMVESLLSLANQPVIHSASSDQVNFKKDTTSKAIHSIFKNAIQLLQEKGLVFQKDDGFDNLYYVTREDKDLHRKIHRIIQQDCQKPNHMEKGCHFLHILACARLSIRPGLSEAVLQQVLELLEDQSDIVSTMEHYYTAF
# chain 3: LPKPGTYYLPWEVSAGQVPDGSTLRTFGRLCLYDMIQSRVTLMAQHGSDQHQVLVCTKLVEPFHAQVGSLYIVLGELQHQQDRGSVVKARVLTCVEGMNLPLLEQAIREQRLYKQERGGSQ
# How the values were obtained:
# mCherry-BLM = mCherry-BLM (UniProt P54132 1-1417); assay: DNA curtain single-molecule imaging
# BRCA1-BARD1 = BRCA1-BARD1 (UniProt P38398 1-1863; Q99728 1-777); assay: pull-down
# Sequence of BRCA1-BARD1 (P38398 whole entry, chain 1 of 2): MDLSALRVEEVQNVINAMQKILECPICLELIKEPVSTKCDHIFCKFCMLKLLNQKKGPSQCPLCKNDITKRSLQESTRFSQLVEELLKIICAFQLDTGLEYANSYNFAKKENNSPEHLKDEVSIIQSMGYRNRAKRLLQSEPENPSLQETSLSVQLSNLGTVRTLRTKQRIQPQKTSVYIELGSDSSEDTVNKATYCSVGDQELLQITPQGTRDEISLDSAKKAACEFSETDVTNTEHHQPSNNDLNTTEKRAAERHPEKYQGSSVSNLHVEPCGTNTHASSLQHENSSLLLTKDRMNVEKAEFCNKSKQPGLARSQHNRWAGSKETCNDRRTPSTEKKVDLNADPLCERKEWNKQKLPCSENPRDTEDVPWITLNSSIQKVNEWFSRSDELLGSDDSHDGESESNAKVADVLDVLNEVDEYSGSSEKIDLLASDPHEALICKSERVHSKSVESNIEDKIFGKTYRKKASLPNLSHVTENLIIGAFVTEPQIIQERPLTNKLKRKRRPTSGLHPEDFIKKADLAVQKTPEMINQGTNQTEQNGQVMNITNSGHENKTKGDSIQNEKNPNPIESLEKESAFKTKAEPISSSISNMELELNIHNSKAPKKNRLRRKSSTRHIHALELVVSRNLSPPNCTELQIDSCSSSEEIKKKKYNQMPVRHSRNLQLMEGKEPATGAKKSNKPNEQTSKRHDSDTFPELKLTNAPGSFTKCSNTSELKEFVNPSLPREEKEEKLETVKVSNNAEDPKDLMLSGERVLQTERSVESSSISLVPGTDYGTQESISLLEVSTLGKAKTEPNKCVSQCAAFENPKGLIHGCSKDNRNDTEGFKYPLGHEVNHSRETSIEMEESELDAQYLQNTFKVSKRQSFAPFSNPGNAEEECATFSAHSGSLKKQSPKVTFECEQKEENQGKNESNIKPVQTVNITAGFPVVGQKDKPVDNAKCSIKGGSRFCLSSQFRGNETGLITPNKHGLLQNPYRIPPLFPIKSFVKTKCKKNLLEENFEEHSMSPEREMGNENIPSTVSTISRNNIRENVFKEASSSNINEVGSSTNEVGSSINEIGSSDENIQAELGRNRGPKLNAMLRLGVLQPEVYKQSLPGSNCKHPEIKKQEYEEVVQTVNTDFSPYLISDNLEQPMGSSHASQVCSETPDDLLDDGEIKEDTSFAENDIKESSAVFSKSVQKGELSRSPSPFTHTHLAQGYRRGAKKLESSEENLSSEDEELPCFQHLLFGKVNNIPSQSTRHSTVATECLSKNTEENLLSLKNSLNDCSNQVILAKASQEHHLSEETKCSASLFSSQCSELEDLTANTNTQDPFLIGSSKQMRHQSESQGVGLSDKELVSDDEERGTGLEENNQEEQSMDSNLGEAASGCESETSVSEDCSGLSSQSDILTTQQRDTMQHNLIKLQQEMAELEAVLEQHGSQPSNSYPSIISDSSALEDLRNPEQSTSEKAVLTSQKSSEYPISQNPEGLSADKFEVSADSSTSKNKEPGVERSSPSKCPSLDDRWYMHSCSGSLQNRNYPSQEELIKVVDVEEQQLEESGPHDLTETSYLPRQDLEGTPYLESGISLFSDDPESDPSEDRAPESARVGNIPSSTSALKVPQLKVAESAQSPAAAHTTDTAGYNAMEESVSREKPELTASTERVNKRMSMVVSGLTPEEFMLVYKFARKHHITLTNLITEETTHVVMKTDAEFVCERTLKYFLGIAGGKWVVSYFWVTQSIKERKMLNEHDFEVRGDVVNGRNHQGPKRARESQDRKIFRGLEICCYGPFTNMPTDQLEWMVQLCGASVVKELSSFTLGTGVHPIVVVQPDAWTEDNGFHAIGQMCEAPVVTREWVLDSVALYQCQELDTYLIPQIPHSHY
# Sequence of BRCA1-BARD1 (Q99728 whole entry, chain 2 of 2): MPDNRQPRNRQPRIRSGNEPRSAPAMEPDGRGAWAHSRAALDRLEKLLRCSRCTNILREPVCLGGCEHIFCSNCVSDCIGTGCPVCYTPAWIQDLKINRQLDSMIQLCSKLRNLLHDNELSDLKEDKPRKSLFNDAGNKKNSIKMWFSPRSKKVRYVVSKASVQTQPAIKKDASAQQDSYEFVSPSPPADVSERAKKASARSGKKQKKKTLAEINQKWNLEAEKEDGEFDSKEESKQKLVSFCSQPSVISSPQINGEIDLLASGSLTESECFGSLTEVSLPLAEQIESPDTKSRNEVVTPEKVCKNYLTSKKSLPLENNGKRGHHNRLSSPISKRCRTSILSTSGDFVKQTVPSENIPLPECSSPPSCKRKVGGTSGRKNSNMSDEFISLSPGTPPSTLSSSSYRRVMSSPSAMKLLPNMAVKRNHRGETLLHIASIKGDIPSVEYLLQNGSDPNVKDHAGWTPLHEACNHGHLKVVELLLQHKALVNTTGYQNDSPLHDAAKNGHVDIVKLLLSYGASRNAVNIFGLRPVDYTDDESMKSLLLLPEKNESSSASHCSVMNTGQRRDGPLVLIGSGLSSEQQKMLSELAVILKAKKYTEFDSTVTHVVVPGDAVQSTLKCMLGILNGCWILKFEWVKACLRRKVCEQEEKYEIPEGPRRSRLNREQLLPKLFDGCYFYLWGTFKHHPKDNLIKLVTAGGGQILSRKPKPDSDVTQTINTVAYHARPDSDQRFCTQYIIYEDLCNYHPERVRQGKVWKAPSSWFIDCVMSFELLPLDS
# Sequence of mCherry-BLM (P54132 whole entry): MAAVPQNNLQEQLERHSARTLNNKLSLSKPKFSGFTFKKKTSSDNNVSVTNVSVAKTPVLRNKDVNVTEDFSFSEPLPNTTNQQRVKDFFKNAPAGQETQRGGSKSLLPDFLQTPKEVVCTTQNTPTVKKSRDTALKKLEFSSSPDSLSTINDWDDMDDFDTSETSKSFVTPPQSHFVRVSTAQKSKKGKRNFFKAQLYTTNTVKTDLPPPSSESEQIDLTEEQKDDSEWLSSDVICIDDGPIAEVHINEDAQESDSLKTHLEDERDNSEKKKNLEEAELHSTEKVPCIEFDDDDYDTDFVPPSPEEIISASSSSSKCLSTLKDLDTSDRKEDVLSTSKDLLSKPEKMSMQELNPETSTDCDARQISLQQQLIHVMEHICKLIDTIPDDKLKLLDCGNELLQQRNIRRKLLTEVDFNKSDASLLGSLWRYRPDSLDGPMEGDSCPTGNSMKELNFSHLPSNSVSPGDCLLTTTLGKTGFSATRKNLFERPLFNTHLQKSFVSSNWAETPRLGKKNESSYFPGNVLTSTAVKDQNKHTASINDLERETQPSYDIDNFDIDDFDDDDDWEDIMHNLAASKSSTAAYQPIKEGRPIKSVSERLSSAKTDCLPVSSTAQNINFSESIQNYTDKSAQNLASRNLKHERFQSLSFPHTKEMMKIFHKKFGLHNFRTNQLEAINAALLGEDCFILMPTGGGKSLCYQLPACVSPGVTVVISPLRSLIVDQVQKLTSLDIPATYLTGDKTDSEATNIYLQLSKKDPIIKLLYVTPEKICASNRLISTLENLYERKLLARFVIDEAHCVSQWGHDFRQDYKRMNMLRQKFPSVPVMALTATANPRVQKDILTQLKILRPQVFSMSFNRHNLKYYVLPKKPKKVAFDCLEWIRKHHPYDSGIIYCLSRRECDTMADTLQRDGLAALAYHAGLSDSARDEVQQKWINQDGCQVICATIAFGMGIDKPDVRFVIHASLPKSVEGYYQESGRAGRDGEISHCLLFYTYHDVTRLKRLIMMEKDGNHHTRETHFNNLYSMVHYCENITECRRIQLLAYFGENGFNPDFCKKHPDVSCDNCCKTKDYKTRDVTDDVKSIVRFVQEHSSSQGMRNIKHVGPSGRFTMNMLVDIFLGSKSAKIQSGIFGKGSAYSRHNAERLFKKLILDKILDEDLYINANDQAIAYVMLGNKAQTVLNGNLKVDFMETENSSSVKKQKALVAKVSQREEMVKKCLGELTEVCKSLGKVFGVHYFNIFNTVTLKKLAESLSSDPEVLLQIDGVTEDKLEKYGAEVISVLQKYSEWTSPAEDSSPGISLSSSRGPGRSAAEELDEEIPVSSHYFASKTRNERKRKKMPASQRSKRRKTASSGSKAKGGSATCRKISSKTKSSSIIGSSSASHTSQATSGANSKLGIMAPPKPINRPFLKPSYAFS
Binder,binding result (mCherry-BLM),binding result (BRCA1-BARD1)
B1,binds,
B2,,binds
